Assay results reported in article PMC9931213, “Structural basis for ATG9A recruitment to the ULK1 complex in mitophagy initiation” (Science Advances, 2023).

B1: MBP-FOLDON-ATG9A (692–839) [bacteriophage T4 | human] / TSF-ATG13^HORMA:GST-ATG101 complex, wild type [human] (parent complex)
chain 1: QLQSLVLSEYASTEMSLHALYMHQLHKQQAQAEPERHVWHRRESDESGESAPDEGGEGARAPQSIPRSASYPCAAPRPGAPETTALHGGFQRRYGGITDPGTVPRVPSHFSRLPLGGWAEDGQSASRHPEPVPEEGSEDELPPQVHKV
chain 2: METDLNSQDRKDLDKFIKFFALKTVQVIVQARLGEKICTRSSSSPTGSDWFNLAIKDIPEVTHEAKKALAGQLPAVGRSMCVEISLKTSEGDSMELEIWCLEMNEKCDKEIKVSYTVYNRLSLLLKSLLAITRVTPAYRLSRKQGHEYVILYRIYFGEVQLSGLGEGFQTVRVGTVGTPVGTITLSCAYRINLAFMS
chain 3: MNCRSEVLEVSVEGRQVEEAMLAVLHTVLLHRSTGKFHYKKEGTYSIGTVGTQDVDCDFIDFTYVRVSSEELDRALRKVVGEFKDALRNSGGDGLGQMSLEFYQKKKSRWPFSDECIPWEVWTVKVHVVALATEQERQICREKVGEKLCEKIINIVEVMNRHEYLPKMPTQSEVDNVFDTGLRDVQPYLYKISFQITDALGTSVTTTMRRLIKDTLAL

Variants of: B1
Experiment: GST pull-down; n = 3; read off a plot
chain 2 METDLNSQDRKDLDKDIKFFALKTVQVIVQARLGEKICTRSSSSPTGSDWFNLAIKDIPEVTHEAKKALAGQLPAVGRSMCVEISLKTSEGDSMELEIWCLEMNEKCDKEIKVSYTVYNRLSLLLKSLLAITRVTPAYRLSRKQGHEYVILYRIYFGEVQLSGLGEGFQTVRVGTVGTPVGTITLSCAYRINLAFMS [chain 2 F16D] showed a ratio to parent of roughly 0.1.
chain 2 METDLNSQDRKDLDKFIKFFALKTVQVIVQARLGEKICTRSSSSPTGSDWFNLAIKDIPEVTHEAKKALAGQLPAVGRSMCVLISLKTSEGDSMELEIWCLEMNEKCDKEIKVSYTVYNRLSLLLKSLLAITRVTPAYRLSRKQGHEYVILYRIYFGEVQLSGLGEGFQTVRVGTVGTPVGTITLSCAYRINLAFMS [chain 2 E83L] gave a ratio to parent of roughly 0.88.
chain 2 METDLNSQDRKDLDDFIKFFALKTVQVIVQARLGEKICTRSSSSPTGSDWFNLAIKDIPEVTHEAKKALAGQLPAVGRSMCVEISLKTSEGDSMELEIWCLEMNEKCDKEIKVSYTVYNRLSLLLKSLLAITRVTPAYRLSRKQGHEYVILYRIYFGEVQLSGLGEGFQTVRVGTVGTPVGTITLSCAYRINLAFMS [chain 2 K15D] showed a ratio to parent of roughly 0.26.
chain 2 METDLNSQDRKDLDKFIDFFALKTVQVIVQARLGEKICTRSSSSPTGSDWFNLAIKDIPEVTHEAKKALAGQLPAVGRSMCVEISLKTSEGDSMELEIWCLEMNEKCDKEIKVSYTVYNRLSLLLKSLLAITRVTPAYRLSRKQGHEYVILYRIYFGEVQLSGLGEGFQTVRVGTVGTPVGTITLSCAYRINLAFMS [chain 2 K18D] was tested, and the ratio to parent was roughly 0.11.
chain 3 MNCRSEVLEVSVEGRQVEEAMLAVLHTVLLHRSTGKFHYKKEGTDSIGTVGTQDVDCDFIDFTYVRVSSEELDRALRKVVGEFKDALRNSGGDGLGQMSLEFYQKKKSRWPFSDECIPWEVWTVKVHVVALATEQERQICREKVGEKLCEKIINIVEVMNRHEYLPKMPTQSEVDNVFDTGLRDVQPYLYKISFQITDALGTSVTTTMRRLIKDTLAL [chain 3 Y45D] was tested, and the ratio to parent was roughly 0.02.
In the case of chain 2 METDLNSQDRKDLDKFIKFFALKTVQVIVQARLGEKICTRSSSSPTGSDWFNLAIKDIPEVTHEAKKALAGQLPAVGRSMCVEISLKTSEGDSMELEIWCLEMNEKCDKEIKVSYTVDNRLSLLLKSLLAITRVTPAYRLSRKQGHEYVILYRIYFGEVQLSGLGEGFQTVRVGTVGTPVGTITLSCAYRINLAFMS [chain 2 Y118D], the ratio to parent is reported as roughly 0.03.
Variant chain 2 METDLNSQDRKDLDKFIKFFALKTVQVIVQARLGEKICTRSSSSPTGSDDFNLAIKDIPEVTHEAKKALAGQLPAVGRSMCVEISLKTSEGDSMELEIWCLEMNEKCDKEIKVSYTVYNRLSLLLKSLLAITRVTPAYRLSRKQGHEYVILYRIYFGEVQLSGLGEGFQTVRVGTVGTPVGTITLSCAYRINLAFMS [chain 2 W50D] has a ratio to parent of roughly 0.02.
Work on chain 3 MNCRSEVLEVSVEGRQVEEAMLAVLHTVLLHRSTGKFHYKKEGTYSIGTVGTQDVDCDFIDFTYVRVSSEELDRALRKVVGEFKDALRNSGGDGLGQMSLEFYQKKKSRDPDSDECIPWEVWTVKVHVVALATEQERQICREKVGEKLCEKIINIVEVMNRHEYLPKMPTQSEVDNVFDTGLRDVQPYLYKISFQITDALGTSVTTTMRRLIKDTLAL [chain 3 W110D, chain 3 F112D] yielded a ratio to parent of roughly 0.8.
chain 2 METDLNSQDRKDLDKFIKFFALKTVQVIVQARLGEKICTRSSSSPTGSDWFNLAIKDIPEVTHEAKKALAGQLPAVGRSMCVEISLKTSEGDSMELEIWCLEMNEKCDKEIKVSDTVYNRLSLLLKSLLAITRVTPAYRLSRKQGHEYVILYRIYFGEVQLSGLGEGFQTVRVGTVGTPVGTITLSCAYRINLAFMS [chain 2 Y115D] was tested, and the ratio to parent was roughly 0.97.
chain 2 METDLNSQDRKDLDKFIKDFALKTVQVIVQARLGEKICTRSSSSPTGSDWFNLAIKDIPEVTHEAKKALAGQLPAVGRSMCVEISLKTSEGDSMELEIWCLEMNEKCDKEIKVSYTVYNRLSLLLKSLLAITRVTPAYRLSRKQGHEYVILYRIYFGEVQLSGLGEGFQTVRVGTVGTPVGTITLSCAYRINLAFMS [chain 2 F19D] showed a ratio to parent of roughly 0.02.
